This is an account of results in patent US20090196872A1 (KIRIN BEER, published 2009).

For test [1], the target named is T1, bovine serum albumin (bovine, UniProt P02769 25-607).
T1 construct: carrier for immunization
As to the kind of experiment: ELISA; positive = more than 2-fold OD450 of control. Background: In an ELISA, binding on a coated surface is turned into a signal by an enzyme label.

A further test concerns the target T2, OVA (UniProt P01012 2-386).
T2 construct: also called ovalbumin
T2 sequence: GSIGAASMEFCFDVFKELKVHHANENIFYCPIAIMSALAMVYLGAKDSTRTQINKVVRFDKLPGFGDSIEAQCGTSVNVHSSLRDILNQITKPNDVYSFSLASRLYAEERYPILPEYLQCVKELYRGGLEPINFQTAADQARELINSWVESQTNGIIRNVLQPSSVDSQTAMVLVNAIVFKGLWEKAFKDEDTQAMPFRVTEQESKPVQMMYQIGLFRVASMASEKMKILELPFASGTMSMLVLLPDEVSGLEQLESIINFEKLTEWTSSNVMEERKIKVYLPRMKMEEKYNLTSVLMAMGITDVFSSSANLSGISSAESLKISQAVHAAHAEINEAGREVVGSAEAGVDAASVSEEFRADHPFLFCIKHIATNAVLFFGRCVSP
The description is as above.

A further test addresses M2TGS peptide (influenza A virus). Briefly: peptide ELISA, grade relative to wild-type M2.
A further test addresses M2HTGEKS peptide (influenza A virus). Briefly: peptide ELISA, grade relative to wild-type M2.
Another test has as its target M2LGS peptide (influenza A virus). As to the kind of experiment: peptide ELISA, grade relative to wild-type M2.
The target in the next test is M2EG peptide (influenza A virus). Briefly: peptide ELISA, grade relative to wild-type M2.
For another test, the target named is M2TGEK peptide (influenza A virus). As to the kind of experiment: peptide ELISA, grade relative to wild-type M2.
The target of another test is M2TDGEKS peptide (influenza A virus). Briefly: peptide ELISA, grade relative to wild-type M2.
Another test has as its target M2KGENS peptide (influenza A virus). Briefly: peptide ELISA, grade relative to wild-type M2.
Another test has as its target M2GHTGKS peptide (influenza A virus). As to the kind of experiment: peptide ELISA.
Test [2] concerns the target T1, bovine serum albumin. As to the kind of experiment: ELISA.

T1 sequence (P02769 25-607 limits assumed): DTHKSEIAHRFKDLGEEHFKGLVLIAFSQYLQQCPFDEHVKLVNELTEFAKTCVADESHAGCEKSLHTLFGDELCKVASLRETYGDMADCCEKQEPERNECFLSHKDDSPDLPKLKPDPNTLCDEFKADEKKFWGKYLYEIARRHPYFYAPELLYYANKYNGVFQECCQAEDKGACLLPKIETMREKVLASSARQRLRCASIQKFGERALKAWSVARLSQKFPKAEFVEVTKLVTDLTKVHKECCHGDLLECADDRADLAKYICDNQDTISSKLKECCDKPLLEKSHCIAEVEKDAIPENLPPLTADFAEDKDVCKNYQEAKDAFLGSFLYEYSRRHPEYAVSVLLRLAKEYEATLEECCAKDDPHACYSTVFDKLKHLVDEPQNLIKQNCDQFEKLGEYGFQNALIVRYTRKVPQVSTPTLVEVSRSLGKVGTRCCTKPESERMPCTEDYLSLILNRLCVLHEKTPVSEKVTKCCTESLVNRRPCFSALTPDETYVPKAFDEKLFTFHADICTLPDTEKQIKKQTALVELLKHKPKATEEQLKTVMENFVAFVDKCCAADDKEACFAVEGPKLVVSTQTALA
Experimental for M2EG peptide: (§1) ELISA: Antibody titers and antibody specificity as well as antibody production by hybridomas were determined by ELISA. […] After washing twice with PBS/0.1% Tween 20, plates were blocked with PBS/1% BSA (Sigma, St. Louis, Mo.) at 37° C. for 30 min., the antibody or serum was added to the wells and the plates were incubated at 37° C. for 1 hr. After washing four times, diluted HRP conjugated goat anti-human Immunoglobulin gamma chain specific antibody (Jackson Immunoresearch Laboratory, West Grove, Pa.) was added to the wells and incubated for 1 hr at 37° C. After washing four times, TMB substrate solution (DAKO, CA) was added and incubated for 30 min at room temperature. The optical density at 450 nm was measured by a microplate reader.
Experimental for M2GHTGKS peptide: as §1
Experimental for M2HTGEKS peptide: as §1
Experimental for M2KGENS peptide: as §1
Experimental for M2LGS peptide: as §1
Experimental for M2TDGEKS peptide: as §1
Experimental for M2TGEK peptide: as §1
Experimental for M2TGS peptide: as §1

B1: human anti-M2 monoclonal antibody no. Z3G1 (recombinant IgG1 type Z3, CHO; ATCC PTA-5967) (antibody, V domains shown)
VH: QVQLVQSGAEVKKPGASVKVSCKASGYTFTSYGISWVRQAPGQGLEWMGWISAYNGNTNYAQKLQGRVTMTTDTSTSTAYMELRSLRSDDTAVYYCARAAAGGYFQHWGQGTLVTVSS
VL: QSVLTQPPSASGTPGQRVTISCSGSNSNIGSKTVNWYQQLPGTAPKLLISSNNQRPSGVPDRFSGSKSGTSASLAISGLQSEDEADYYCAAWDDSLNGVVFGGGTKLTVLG
As for B1, the binding result in the test with bovine serum albumin [1] was “no binding”; in the test with OVA, “no binding”; in the test with M2TGS peptide it was “binds”; with M2HTGEKS peptide it was “binds”; with M2LGS peptide, “binds”; with M2EG peptide, “binds”. For the same molecule, the binding result was “binds” with M2TGEK peptide, “binds” in the test with M2TDGEKS peptide, “binds” with M2KGENS peptide and “no binding (tested: <10% of binding to wild-type M2 peptide)” in the test with M2GHTGKS peptide.

B2: human anti-M2 antibody Z3 (original, IgG3, hybridoma 113Z-3) (antibody, V domains shown)
VH: B1 VH
VL: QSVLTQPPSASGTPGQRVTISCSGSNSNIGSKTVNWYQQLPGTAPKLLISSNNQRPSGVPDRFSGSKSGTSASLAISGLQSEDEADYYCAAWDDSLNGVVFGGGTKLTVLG
In the case of B2, the binding result with bovine serum albumin [2] was “no binding”.
